In paper PMC2767340:
Substitutions are numbered along the chain they refer to. Read-outs that look alike come from different tables or passages of the source.

How the values were obtained:
[1] = biological target: ΔEspP peptide labeled with carboxyfluorescein; assay: fluorescence polarisation
[2] = biological target: ΔEspP peptide labeled with carboxyfluorescein; assay: fluorescence polarisation; remark: listed apart in the source
[3] = biological target: ΔEspP peptide labeled with carboxyfluorescein; assay: fluorescence polarisation; remark: listed apart in the source
[4] = biological target: ΔEspP peptide labeled with carboxyfluorescein; assay: fluorescence polarisation; remark: listed apart in the source
[5] = biological target: T1, FtsY (Escherichia coli), P10121; assay: other fluorescence titration; details: remark: other sources report otherwise
T1 chain: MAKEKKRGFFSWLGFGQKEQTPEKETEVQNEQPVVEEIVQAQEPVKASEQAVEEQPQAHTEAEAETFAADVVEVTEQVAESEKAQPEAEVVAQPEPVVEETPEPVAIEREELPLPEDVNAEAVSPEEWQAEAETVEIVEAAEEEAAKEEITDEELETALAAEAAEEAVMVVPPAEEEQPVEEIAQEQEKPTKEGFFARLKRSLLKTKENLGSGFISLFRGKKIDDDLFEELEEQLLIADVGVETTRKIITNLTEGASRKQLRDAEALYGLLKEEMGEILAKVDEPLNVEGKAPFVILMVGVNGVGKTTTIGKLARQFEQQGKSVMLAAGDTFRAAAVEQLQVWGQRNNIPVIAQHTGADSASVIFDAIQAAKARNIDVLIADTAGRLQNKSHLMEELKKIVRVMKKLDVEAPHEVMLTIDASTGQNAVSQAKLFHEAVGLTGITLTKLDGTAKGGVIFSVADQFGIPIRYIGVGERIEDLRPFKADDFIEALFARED

B1: Ffh (natural protein)
chain: MFDNLTDRLSRTLRNISGRGRLTEDNVKDTLREVRMALLEADVALPVVREFINRVKEKAVGHEVNKSLTPGQEFVKIVRNELVAAMGEENQTLNLAAQPPAVVLMAGLQGAGKTTSVGKLGKFLREKHKKKVLVVSADVYRPAAIKQLETLAEQVGVDFFPSDVGQKPVDIVNAALKEAKLKFYDVLLVDTAGRLHVDEAMMDEIKQVHASINPVETLFVVDAMTGQDAANTAKAFNEALPLTGVVLTKVDGDARGGAALSIRHITGKPIKFLGVGEKTEALEPFHPDRIASRILGMGDVLSLIEDIESKVDRAQAEKLASKLKKGDGFDLNDFLEQLRQMKNMGGMASLMGKLPGMGQIPDNVKSQMDDKVLVRMEAIINSMTMKERAKPEIIKGSRKRRIAAGCGMQVQDVNRLLKQFDDMQRMMKKMKKGGMAKMMRSMKGMMPPGFPGR
Kd [1]: 21.6 µM | Kd [2]: 1500 nM | Kd [3]: 19.6 µM | Kd [4]: 5.5 µM

B2: Ffh, P0AGD7 1-453 (natural protein)
chain: B1 chain
fold change of the association rate with C12E8 against without (with 4.5S RNA) [5]: 70 fold | fold change of the association rate with ΔEspP* against without (with 4.5S RNA) [5]: > 40 fold | fold change of the dissociation rate with C12E8 against without (with 4.5S RNA) [5]: 23 fold | fold change of the dissociation rate with ΔEspP* against without (with 4.5S RNA) [5]: 10 fold
